Changes are numbered by the printed parent chain. Like-named read-outs stand apart in the source and are kept apart here. Values belong to the binder of their own block, whether it stands above or below them.
Legend:
Assay in all cases: SPR, Fab captured, 37C
[1] = target: T1, C domain of human CD33 (human, UniProt P20138 140-259, limits assumed)
T1 construct: recombinant C domain
Experimental: (§1) Kinetics and affinity of a series of Fab fragments of anti-CD33 antibodies with different CD33 variants (human CD33 ECD, cyno CD33 ECD, V-domain of human CD33, C-domain or human CD33 and selected CD33 SNPs) were assessed by surface plasmon resonance using Biacore 8K instrument (GE Healthcare). Anti-Fab antibody was immobilized on a CMS chip using standard amine coupling chemistry. CD33 FABs were captured on the anti-Fab chip at a density of ˜100 RU. Solutions containing different concentrations of soluble monomeric CD33 or its domains were injected over the captured FABs and control surfaces at 30 μl/min at 37° C. Surfaces were regenerated between cycles by quick injection of 10 mM glycine, pH 1.8. To obtain kinetic rate constants double-referenced data were fit to a 1:1 interaction model using Biacore 8K Evaluation software (GE Healthcare). The equilibrium binding constant KD was determined by the ratio of binding rate constants kd/kₐ.
The binding interface between the Fab fragment of each CD33 antibody to CD33 was mapped.

[2] = target: T2, human CD33 extracellular domain (human, UniProt P20138 18-259)
T2 construct: soluble monomeric ECD; also called human CD33 ECD; hCD33

[3] = target: T3, cyno CD33 extracellular domain (Cynomolgus/Rhesus (cyno))
T3 construct: soluble monomeric ECD; also called cyno CD33 ECD

[4] = target: T2, human CD33 extracellular domain; remark: listed apart in the source
[5] = target: T4, V domain of human CD33 (human, UniProt P20138 18-139, limits assumed)
T4 construct: recombinant, fully glycosylated V domain; also called Human CD33 V domain

[6] = target: T4, V domain of human CD33; remark: listed apart in the source
[7] = target: T5, deglycosylated V domain of human CD33 (human, UniProt P20138 18-139, limits assumed, N-glycans removed by PNGase)
T5 construct: V domain deglycosylated by PNGase before testing; also called deglycosylated V CD33

[8] = target: T2, human CD33 extracellular domain; remark: listed apart in the source
Experimental: as §1
(§2) Affinity of 29 Fab fragments binding to human and cyno CD33 ECD were assayed by Biacore analysis.

[9] = target: T2, human CD33 extracellular domain; remark: listed apart in the source
Experimental: as §1, §2

binding result [1]: no binding | Kd [2]: 0.02 nM | koff [2]: 5.65e-05 s⁻¹ | kon [2]: 2.84e+06 M⁻¹ s⁻¹ | Kd [3]: 4.96 nM | koff [3]: 0.019 s⁻¹ | kon [3]: 3.82e+06 M⁻¹ s⁻¹ | Kd [4]: 0.02 nM | koff [4]: 5.65e-05 s⁻¹ | kon [4]: 2.84e+06 M⁻¹ s⁻¹ | Kd [5]: 0.14 nM | koff [5]: 0.000916 s⁻¹ | kon [5]: 6.75e+06 M⁻¹ s⁻¹ | Kd [6]: 0.14 nM | koff [6]: 0.000916 s⁻¹ | kon [6]: 6.75e+06 M⁻¹ s⁻¹ | Kd [7]: 0.11 nM | koff [7]: 0.00103 s⁻¹ | kon [7]: 9.15e+06 M⁻¹ s⁻¹ | Kd [8]: 0.02 nM | koff [8]: 5.65e-05 s⁻¹ | kon [8]: 2.84e+06 M⁻¹ s⁻¹
B1: ADI-11819 Fab (Fab, V domains shown)
VH: EVQLVESGGGLVKPGGSLRLSCAASGFTFSSYAMSWVRQAPGKGLEWVSSISSSSEGIYYADSVKGRFTISRDNAKNSLYLQMNSLRAEDTAVYYCAREGGPYYDSSGYFVYYGMDVWGQGTTVTVSS
VL: DIQMTQSPSTLSASVGDRVTITCRASNSISSWLAWYQQKPGKAPKLLIYEASSTKSGVPSRFSGSGSGTEFTLTISSLQPDDFATYYCQQYDDLPTFGGGTKVEIK
notes: Fab fragment; also called Ab8

binding result [1]: no binding | Kd [2]: 4.53 nM | koff [2]: 0.00195 s⁻¹ | kon [2]: 429000 M⁻¹ s⁻¹ | Kd [3]: 74.9 nM | koff [3]: 0.0436 s⁻¹ | kon [3]: 528000 M⁻¹ s⁻¹ | Kd [4]: 4.53 nM | koff [4]: 0.00195 s⁻¹ | kon [4]: 429000 M⁻¹ s⁻¹ | Kd [5]: 5.56 nM | koff [5]: 0.005 s⁻¹ | kon [5]: 905000 M⁻¹ s⁻¹ | Kd [6]: 5.56 nM | koff [6]: 0.005 s⁻¹ | kon [6]: 905000 M⁻¹ s⁻¹ | Kd [7]: 12.3 nM | koff [7]: 0.012 s⁻¹ | kon [7]: 978000 M⁻¹ s⁻¹ | Kd [8]: 4.53 nM | koff [8]: 0.00195 s⁻¹ | kon [8]: 429000 M⁻¹ s⁻¹
B2: ADI-10159 Fab (Fab, V domains shown)
VH: EVQLVESGGGLVQPGGSLRLSCAASGFTFSSYGMSWVRQAPGKGLEWVANIKQDGSEKYYVDSVKGRFTISRDNAKNSLYLQMNSLRAEDTAVYYCAREGGPYYDSSGYFVYYGMDVWGQGTTVTVSS
VL: B1 VL with N27Q, E50D, T54L, K55E, D92E, D93S, L94F
notes: Fab fragment; also called Ab1; G59

binding result [1]: no binding | Kd [2]: 2.75 nM | koff [2]: 0.00547 s⁻¹ | kon [2]: 1.99e+06 M⁻¹ s⁻¹ | Kd [3]: 27.8 nM | koff [3]: 0.0364 s⁻¹ | kon [3]: 1.34e+06 M⁻¹ s⁻¹ | Kd [4]: 2.75 nM | koff [4]: 0.00547 s⁻¹ | kon [4]: 1.99e+06 M⁻¹ s⁻¹ | Kd [5]: 4.5 nM | koff [5]: 0.0299 s⁻¹ | kon [5]: 6.67e+06 M⁻¹ s⁻¹ | Kd [6]: 4.5 nM | koff [6]: 0.0299 s⁻¹ | kon [6]: 6.67e+06 M⁻¹ s⁻¹ | Kd [7]: 3.95 nM | koff [7]: 0.0269 s⁻¹ | kon [7]: 6.8e+06 M⁻¹ s⁻¹ | Kd [8]: 2.75 nM | koff [8]: 0.00547 s⁻¹ | kon [8]: 1.99e+06 M⁻¹ s⁻¹
B3: ADI-11830 Fab (Fab, V domains shown)
VH: EVQLVESGGGLVQPGGSLRLSCAASGFTFSSYWMSWVRQAPGKGLEWVANINTDGSEVYYVDSVKGRFTISRDNAKNSLYLQMNSLRAEDTAVYYCARDVGPGIAYQGHFDYWGQGTLVTVSS
VL: DIQMTQSPSSLSASVGDRVTITCRASQVIYSYLNWYQQKPGKAPKLLIYAASSLKSGVPSRFSGSGSGTDFTLTISSLQPEDFATYYCQQVYDTPLTFGGGTKVEIK
notes: Fab fragment; also called Ab9

binding result [1]: no binding | Kd [2]: 53.5 nM | binding result [3]: no binding (tested: 100 nM) | Kd [4]: 53.5 nM | Kd [7]: 152 nM | Kd [8]: 53.5 nM | Kd [9]: 53.5 nM
B4: ADI-10163 Fab (Fab, V domains shown)
VH: QVQLQESGPGLVKPSQTLSLTCTVSGGSISSGGYYWSWIRQHPGKGLEWIGSIYYSGSTYYNPSLKSRVTISVDTSKNQFSLKLSSVTAADTAVYYCARDRLDYSYNYGMDVWGQGTTVTVSS
VL: B3 VL with V28S, Y30S, A50G, K55Q, D93S, T94A, L96F
notes: Fab fragment; also called Ab17

binding result [1]: no binding | Kd [2]: 1.23 nM | koff [2]: 0.000486 s⁻¹ | kon [2]: 396000 M⁻¹ s⁻¹ | binding result [3]: no binding (tested: 100 nM) | Kd [4]: 1.23 nM | koff [4]: 0.000486 s⁻¹ | kon [4]: 396000 M⁻¹ s⁻¹ | binding result [5]: no binding | binding result [7]: no binding | Kd [8]: 1.23 nM | koff [8]: 0.000486 s⁻¹ | kon [8]: 396000 M⁻¹ s⁻¹ | Kd [9]: 1.23 nM | koff [9]: 0.000486 s⁻¹
B5: ADI-11812 Fab (Fab, V domains shown)
VH: QVQLVQSGAEVKKPGASVKVSCKASGYTFEIYYMHWVRQAPGQGLEWMGIINPSSGSTVYAQKFQGRVTMTRDTSTSTVYMELSSLRSEDTAVYYCARGAGYDDEDMDVWGKGTTVTVSS
VL: B3 VL with L11V, V28G, Y30D, Y32W, N34A, K55Q, V91A, Y92H, D93S, T94Y
notes: Fab fragment; also called Ab24

— patent US20220380459A1 (DRAGONFLY THERAPEUTICS, published 2022)
